Source: article PMC9063470, “Ultrasensitive fluorescent aptasensor for CRP detection based on the RNase H assisted DNA recycling signal amplification strategy”

Assays:
BNP = BNP (UniProt P16860 103-134); experiment: fluorescent strand-displacement aptasensor (RNase H recycling, GO quenching); 50 ng/mL; negligible signal; 20 mM Tris-HCl, 40 mM KCl, 8 mM MgCl2, 1 mM DTT, pH 7.8; 20 min Ap/P1 + CRP incubation; temperature not stated; conditions: label: none (5-FAM is on the reporter RNA S3, not on Ap or P1); partial duplex: P1 (23 nt) pairs with Ap nt 48-70; 47 nt 5' and 2 nt 3' single-stranded Ap overhangs
MB = target: T1, MB (UniProt P02144 2-154); experiment: as above; conditions: label: none (5-FAM is on the reporter RNA S3, not on Ap or P1); partial duplex: P1 (23 nt) pairs with Ap nt 48-70; 47 nt 5' and 2 nt 3' single-stranded Ap overhangs
T1 sequence: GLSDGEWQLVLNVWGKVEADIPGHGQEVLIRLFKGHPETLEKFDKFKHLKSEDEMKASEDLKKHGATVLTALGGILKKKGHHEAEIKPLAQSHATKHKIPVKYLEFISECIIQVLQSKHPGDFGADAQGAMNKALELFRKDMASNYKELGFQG

C-reactive protein (CRP) = target: T2, C-reactive protein (CRP) (UniProt P02741 19-224); experiment: fluorescent strand-displacement aptasensor (RNase H recycling, GO quenching); CRP 10 ng/mL; P1 strand released from Ap/P1; 20 mM Tris-HCl, 40 mM KCl, 8 mM MgCl2, 1 mM DTT, pH 7.8; 20 min Ap/P1 + CRP incubation; temperature not stated; conditions: chain copies: 5; label: none (5-FAM is on the reporter RNA S3, not on Ap or P1); partial duplex: P1 (23 nt) pairs with Ap nt 48-70; 47 nt 5' and 2 nt 3' single-stranded Ap overhangs
T2 sequence: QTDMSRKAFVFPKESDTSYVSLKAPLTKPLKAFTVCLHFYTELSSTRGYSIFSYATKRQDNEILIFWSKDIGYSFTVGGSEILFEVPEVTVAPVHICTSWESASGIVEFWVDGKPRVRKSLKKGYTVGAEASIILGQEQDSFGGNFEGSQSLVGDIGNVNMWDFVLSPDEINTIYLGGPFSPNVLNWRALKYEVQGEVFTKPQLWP

Sequence of BNP (P16860 103-134): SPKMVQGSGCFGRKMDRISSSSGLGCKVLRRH

B1: CRP aptamer (Ap) presented as Ap/P1 complex (mixed)
DNA 1: GGCAGGAAGACAAACATATAATTGAGATCGTTTGATGACTTTGTAAGAGTGTGGAATGGTCTGTGGTGCTGT
DNA 2: AGCACCACAGACCATTCCACACT
B1: no binding (BNP); no binding (MB); binds (C-reactive protein (CRP)).
